Test results taken from the RNAGym collection of RNA variant scans (doi:10.1073/pnas.2313332121).
Variants at the floor of the assay were thinned out.

B1: TPR 5TU (parent)
chain: GGAUCUUCUCGAUCUAACAAAAAAGACAAAUCUGCCACAAAGCUUGAGAGCAUCUUCGGAUGCAGAGGCGGCAGCCUUCGGUGGCGCGAUAGCGCCAACGUUCUCAACUAUGACACGCAAAACGCGUGCUCCGUUGAAUGGAGUUUAUCAUG

Variants of: B1
Assay: polymerase ribozyme fitness, log enrichment relative to wild type (log ratio); higher = more active; in vitro selection for triplet polymerase activity
Method in brief: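 PCR was used to build mutant libraries for each subunit of a heterodimeric triplet polymerase ribozyme, which were then transcribed. A single in vitro selection round, in triplicate, used a frozen incubation at −7 °C and recovered extended constructs by gel excision, streptavidin beads and RT-PCR. Fitness is the logarithm of genotype enrichment relative to wild-type enrichment, averaged over replicates with inverse-variance weights. The logarithm is base 2, and after Illumina sequencing only genotypes with ≥10 input reads and ≥1 read per output were kept.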

Variant | polymerase ribozyme fitness (log ratio)
C5U A28C A64U G84A | ≤ -4.2
C5G U15G A52G | -1.06
C5G A37U G141U | -1.94
U6C A20C A28C A37U G42U G71A C85U C99G A106G C131G | ≤ -4.2
U6C C54G C93A C116G G141A | -4.17
U6C C85U A121U U135C | -3.27
C5U G84A | 0.439
C5G G59U C99U A119G | -1.53
U6A G11U A23C G25A C36A G50C C125U | ≤ -4.2
U6A C14G C85G U90G A113U | ≤ -4.2
C5G C14G C43G A73G G92U A97C | ≤ -4.2
C5G U7G A12C A22U U90C U144A | ≤ -4.2
C5G G46A G92C | -4.13
C5U A23C A40C A49U G70C G94A | ≤ -4.2
C5G A37C G81A | -1.37
C5U G92A C114U | -3.86
U6A A16U A107C C131G | ≤ -4.2
C5G C35U A52C G59C A106G C108A C114U A119U A122U G133U | ≤ -4.2
C5U U56A C75U G83C | -0.766
C5G U56A G94C A120G | -1.95
C5G U31A C54U G67C A110U A121G | ≤ -4.2

Variant | polymerase ribozyme fitness (log ratio)
C5G C38A G58U | -1.06
U6A G86C | -2.98
C5G G11A A73G C76U | -2.17
C5G U55A | -0.729
C5G C38U A39C C95A G100C | ≤ -4.2
C5G A40C G71A C85A A142C A150C | ≤ -4.2
C5G C35U G80U C95U U104A | ≤ -4.2
U6A C93A | -2.58
U6C A41G U56G G59A U61G C76A A91C C95G G124A | ≤ -4.2
U6A C35A C63U C69U C76A G83C | ≤ -4.2
U6C C105G U144C G152A | -3.94
C5G A28C A73G | ≤ -4.2
C5U A22C C85A | -9.25e-05
C5G C54U G84A U127G | ≤ -4.2
C5G G46A G88A C95G U102G U135C A147C | ≤ -4.2
C5U U13A C57G G141U | -1.34
C5U C51A | -0.999
C5G A52G G83C C93U | -3.55
C5U G25C G42U U61A A107U G133U A142C U148A | ≤ -4.2
C5U A12U A30C G59C C125G G126U | ≤ -4.2
U6A U146G A150G G152A | -1.38

Variant | polymerase ribozyme fitness (log ratio)
U6C C32A A49U G70U U82G C87U C105G | ≤ -4.2
C5U A16C C51U | -1.73
C5U C87U | 0.457
C5G U6G C38U A41U A47U G86A A91C | ≤ -4.2
C5U C38U C63A U77A C95U U127G G136U U144C | ≤ -4.2
C5U C8G A23U U45A G84C | ≤ -4.2
C5G A29G G46U A60G | ≤ -4.2
C5G U55A C93U C118A | -3.5
U6A A12C C87G A89U | -3.27
C5G U144G | 0.355
U6A A12U | 0.206
U6C A23G A91U A106G | ≤ -4.2
C5U A19G U77A C95U | ≤ -4.2
U6C C10U A20C A122C | ≤ -4.2
U6C A47C G81C C87G C96U | ≤ -4.2
C5G A28G A30C C36U A47U C57U C85A A91U C118U A120G C125G A142G | ≤ -4.2
C5U A19G A23G G58U G81A G94C C116A C129U U135C U146G | ≤ -4.2
C5U C96U | 0.36
C5G U45G U55G G86U C87A A91U | ≤ -4.2
C5U U15G U33C | -4.17
C5U U55A | 0.322

Variant | polymerase ribozyme fitness (log ratio)
U6A U55A | -1.4
U6A U55G | -0.118
C5U A28U C51G A52C G67A G94C | ≤ -4.2
C5U A37U C69U C95U | -1.02
C5G C36U C96G | -2.51
U6C C93G | -3.54
C5G U7A U33G A91G C93U C118G A122G U144G | ≤ -4.2
C5U G74A A91U C93G | ≤ -4.2
U6A A12C G58U A91C A98U C103G C131U | ≤ -4.2
C5G A39G G88A C131G | ≤ -4.2
U6A G81C G94U C125U | -2.57
C5U U13C C85U U101G C105A U109G A110G | ≤ -4.2
U6A C8A A19U A20U C72U U77A U101A | ≤ -4.2
U6A C54A C95G A98U | -2.26
C5G C35U G50A U55A C57A A66C C87A U134C | ≤ -4.2
U6A C85U G140C | -3.99
C5U C75A | -4.03
C5G U53A G94A C125A U139C A142C | ≤ -4.2
U6A A22C C75U G84A A97G C108G A113C C116A U135G | ≤ -4.2
C5G U53G C57A G80C A91U U144C | ≤ -4.2
